± gives the standard deviation of the averaged measurements.
Each sequence was assayed on ATP (assay: switch fluorescence ratio, 500 uM ATP over buffer (Cy3 cluster intensity, sum of 5 cycles each) (fold (ratio)); higher = stronger signal-on switching upon ATP binding; sequences stand for … in TCGTCGGCAGCGTCAGATGTGTATAAGAGACAGTTTTTTTTTTTTTTTTTTTTTTTTT…TC). Conditions: aptamer strand: ATP DNA aptamer (quencher-CACCTGGGGGAGTATTGCGGAGGAAGG + anchor), 100 nM annealed; ATP concentration: 500 uM.
In short: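 Values give the fluorescence ratio for each switch-domain sequence, averaged from per-cluster ratios of summed target-cycle to summed buffer-cycle Cy3 intensity. The Cy3-labelled switching-strand clusters sat on a modified Illumina MiSeq flow-cell, were annealed to 100 nM quencher-labelled ATP aptamer, and were imaged in selection buffer, then after 15 min with 500 uM ATP at 22 °C. Five cycles ran with NaOH stripping and re-annealing between them, and clusters outside 100-1000 RFU were excluded.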
CGGAAGAATT was tested, and the switch fluorescence ratio was 0.99422 ± 0.00026. For CGGAAGATAG, the switch fluorescence ratio was 1.027 ± 0.0066. CGGAAGCTTT gave a switch fluorescence ratio of 1.04 ± 0.021. CGGAAGGGTA was tested, and the switch fluorescence ratio was 0.989 ± 0.036. For CGGAAGTATG, the switch fluorescence ratio was 1.04 ± 0.025. With CGGAAGTTCG the switch fluorescence ratio was 0.9774 ± 0.0048. CGGAATTTGG gave a switch fluorescence ratio of 1.02 ± 0.041. CGGACCAACG gave a switch fluorescence ratio of 1.09 ± 0.019. CGGACGGAAG gave a switch fluorescence ratio of 1.01 ± 0.0078. CGGACGGTTG was tested, and the switch fluorescence ratio was 1.01 ± 0.042. Sequence CGGACTGGGA has a switch fluorescence ratio of 1.007 ± 0.0052. CGGAGACTTG showed a switch fluorescence ratio of 0.973 ± 0.068. With CGGAGAGGCA the switch fluorescence ratio was 0.974 ± 0.032. CGGAGATTAC gave a switch fluorescence ratio of 2.25 ± 0.035. Work on CGGAGCAGGA yielded a switch fluorescence ratio of 1.48 ± 0.17. Work on CGGAGCAGGT yielded a switch fluorescence ratio of 2.09 ± 0.42. CGGAGCCAGG showed a switch fluorescence ratio of 1.43 ± 0.02. For CGGAGGGAGT, the switch fluorescence ratio was 1.78 ± 1.1. In the case of CGGAGGGGTC, the switch fluorescence ratio is reported as 1.02 ± 0.02. Work on CGGAGGGGTG yielded a switch fluorescence ratio of 1.02 ± 0.022. CGGAGGTGTA was tested, and the switch fluorescence ratio was 1.4 ± 0.67. CGGAGTCTGT was tested, and the switch fluorescence ratio was 1.1 ± 0.048. CGGAGTTATG gave a switch fluorescence ratio of 1.09 ± 0.04. CGGAGTTGGG showed a switch fluorescence ratio of 0.9863 ± 0.0044. For CGGATAATTT, the switch fluorescence ratio was 1.01 ± 0.047. CGGATAGAAT gave a switch fluorescence ratio of 0.984 ± 0.029. Sequence CGGATAGAGG has a switch fluorescence ratio of 0.964 ± 0.012. With CGGATATGCG the switch fluorescence ratio was 1.06 ± 0.085. In the case of CGGATCATCA, the switch fluorescence ratio is reported as 1 ± 0.021. For CGGATCGTCG, the switch fluorescence ratio was 0.984 ± 0.038. Sequence CGGATGAGGT has a switch fluorescence ratio of 0.987 ± 0.052. For CGGATGGAGT, the switch fluorescence ratio was 0.99128 ± 1.1e-05. For CGGATGGGAA, the switch fluorescence ratio was 0.995 ± 0.024. CGGATGTGTA was tested, and the switch fluorescence ratio was 1.002 ± 0.01. With CGGATGTTAC the switch fluorescence ratio was 1.171 ± 0.0093. For CGGATTAGTG, the switch fluorescence ratio was 0.964 ± 0.018. Sequence CGGATTATTT has a switch fluorescence ratio of 0.984 ± 0.037. Sequence CGGATTTGAC has a switch fluorescence ratio of 1.015 ± 0.0028. With CGGCAAGAGT the switch fluorescence ratio was 1.479 ± 0.0019. CGGCAATGTT was tested, and the switch fluorescence ratio was 1.73 ± 0.14. For CGGCAGAAAT, the switch fluorescence ratio was 0.967 ± 0.022. Work on CGGCAGGATG yielded a switch fluorescence ratio of 1.01 ± 0.024. Sequence CGGCAGTAAT has a switch fluorescence ratio of 1.471 ± 0.003. CGGCATCGAA showed a switch fluorescence ratio of 0.985 ± 0.036. In the case of CGGCATGTCT, the switch fluorescence ratio is reported as 0.997 ± 0.076. With CGGCCAATAA the switch fluorescence ratio was 3.19 ± 0.12. With CGGCGAACTC the switch fluorescence ratio was 1.11 ± 0.033. CGGCGAAGTT gave a switch fluorescence ratio of 0.9883 ± 0.0046. CGGCGGCACG showed a switch fluorescence ratio of 0.998 ± 0.086. CGGCGGGGGC showed a switch fluorescence ratio of 0.998 ± 0.022. Sequence CGGCGGGGGG has a switch fluorescence ratio of 1.08 ± 0.22. CGGCGTACTA gave a switch fluorescence ratio of 1.06 ± 0.014. CGGCGTCCGT showed a switch fluorescence ratio of 1.01 ± 0.037. In the case of CGGCTACATT, the switch fluorescence ratio is reported as 0.9995 ± 0.0034. CGGCTAGACG was tested, and the switch fluorescence ratio was 0.9994 ± 0.0057. CGGCTTAGAT gave a switch fluorescence ratio of 0.984 ± 0.028. In the case of CGGCTTATGT, the switch fluorescence ratio is reported as 0.9807 ± 0.0029. Sequence CGGCTTGCGG has a switch fluorescence ratio of 1.03 ± 0.015. For CGGCTTTTTT, the switch fluorescence ratio was 0.959 ± 0.012. In the case of CGGGAACCTT, the switch fluorescence ratio is reported as 1.283 ± 0.01. With CGGGAACTCG the switch fluorescence ratio was 1.01 ± 0.04. Sequence CGGGAACTGT has a switch fluorescence ratio of 0.964 ± 0.07. Sequence CGGGAAGGGG has a switch fluorescence ratio of 1.02 ± 0.03. CGGGAAGTGG was tested, and the switch fluorescence ratio was 0.996 ± 0.03. CGGGAAGTTT was tested, and the switch fluorescence ratio was 0.999 ± 0.032. For CGGGAATTGG, the switch fluorescence ratio was 0.961 ± 0.067. Work on CGGGACGTTT yielded a switch fluorescence ratio of 1.01 ± 0.013. For CGGGAGAACT, the switch fluorescence ratio was 0.987 ± 0.026. In the case of CGGGAGCGGA, the switch fluorescence ratio is reported as 0.995 ± 0.018. Work on CGGGAGCGTC yielded a switch fluorescence ratio of 1.02 ± 0.01. Work on CGGGAGCTTT yielded a switch fluorescence ratio of 1.07 ± 0.012. For CGGGAGGGTC, the switch fluorescence ratio was 1.06 ± 0.012. In the case of CGGGAGGTTT, the switch fluorescence ratio is reported as 0.9854 ± 0.0083. Sequence CGGGATAATG has a switch fluorescence ratio of 0.994 ± 0.021. Sequence CGGGATTAGC has a switch fluorescence ratio of 0.983 ± 0.022. CGGGATTATC showed a switch fluorescence ratio of 1.01 ± 0.021. For CGGGATTGAG, the switch fluorescence ratio was 0.979 ± 0.0058. With CGGGATTGGG the switch fluorescence ratio was 0.96 ± 0.061. In the case of CGGGCAGGTA, the switch fluorescence ratio is reported as 1.044 ± 0.0039. Work on CGGGCAGTTT yielded a switch fluorescence ratio of 1.03 ± 0.041. For CGGGCCCTGA, the switch fluorescence ratio was 0.977 ± 0.013. With CGGGCGCGTT the switch fluorescence ratio was 0.984 ± 0.054. Work on CGGGCTTCTA yielded a switch fluorescence ratio of 1.04 ± 0.053. CGGGGAAAGA showed a switch fluorescence ratio of 0.978 ± 0.03. CGGGGAACTT gave a switch fluorescence ratio of 1.01 ± 0.019. For CGGGGAATAT, the switch fluorescence ratio was 0.993 ± 0.017. CGGGGACGGT gave a switch fluorescence ratio of 0.9631 ± 0.0064. In the case of CGGGGAGGAA, the switch fluorescence ratio is reported as 1.01 ± 0.072. In the case of CGGGGAGGGA, the switch fluorescence ratio is reported as 1.03 ± 0.019. Work on CGGGGATAAG yielded a switch fluorescence ratio of 0.981 ± 0.011. With CGGGGATAGG the switch fluorescence ratio was 1.041 ± 0.0075. In the case of CGGGGATATG, the switch fluorescence ratio is reported as 0.9607 ± 0.0029. Work on CGGGGATTTT yielded a switch fluorescence ratio of 1.01 ± 0.051. With CGGGGCAAAA the switch fluorescence ratio was 1.04 ± 0.027. Work on CGGGGCATGG yielded a switch fluorescence ratio of 1 ± 0.039. CGGGGCCATG showed a switch fluorescence ratio of 1.02 ± 0.068. With CGGGGCCTGG the switch fluorescence ratio was 0.959 ± 0.021. Work on CGGGGCGCTA yielded a switch fluorescence ratio of 1.21 ± 0.29. Work on CGGGGCGGCG yielded a switch fluorescence ratio of 0.986 ± 0.002. For CGGGGCTATT, the switch fluorescence ratio was 0.999 ± 0.03. With CGGGGCTGGC the switch fluorescence ratio was 1.2 ± 0.13. In the case of CGGGGGACGC, the switch fluorescence ratio is reported as 0.993 ± 0.06. In the case of CGGGGGAGTG, the switch fluorescence ratio is reported as 0.975 ± 0.025. With CGGGGGATGT the switch fluorescence ratio was 0.999 ± 0.024. CGGGGGATT showed a switch fluorescence ratio of 1.03 ± 0.02. CGGGGGCCGT was tested, and the switch fluorescence ratio was 0.936 ± 0.014. In the case of CGGGGGCGTT, the switch fluorescence ratio is reported as 1 ± 0.018. CGGGGGCTG gave a switch fluorescence ratio of 1 ± 0.039. CGGGGGCTGG showed a switch fluorescence ratio of 0.989 ± 0.059. In the case of CGGGGGCTTT, the switch fluorescence ratio is reported as 0.99 ± 0.017. Work on CGGGGGGGCA yielded a switch fluorescence ratio of 1 ± 0.038. In the case of CGGGGGGGGG, the switch fluorescence ratio is reported as 1.02 ± 0.054. CGGGGGGTCT was tested, and the switch fluorescence ratio was 0.999 ± 0.04. For CGGGGGTACG, the switch fluorescence ratio was 1.02 ± 0.074. CGGGGGTAGA gave a switch fluorescence ratio of 0.966 ± 0.042. For CGGGGGTAGG, the switch fluorescence ratio was 1.03 ± 0.049. Work on CGGGGGTCGG yielded a switch fluorescence ratio of 0.978 ± 0.012. Work on CGGGGGTCTT yielded a switch fluorescence ratio of 1 ± 0.021. In the case of CGGGGGTTAG, the switch fluorescence ratio is reported as 0.999 ± 0.033. For CGGGGGTTTT, the switch fluorescence ratio was 0.994 ± 0.034. Work on CGGGGTATGG yielded a switch fluorescence ratio of 1 ± 0.011. In the case of CGGGGTCGTA, the switch fluorescence ratio is reported as 1 ± 0.047. For CGGGGTCTTC, the switch fluorescence ratio was 0.996 ± 0.012. Sequence CGGGGTGCGA has a switch fluorescence ratio of 1.02 ± 0.021. CGGGGTTCGA was tested, and the switch fluorescence ratio was 1 ± 0.011. CGGGGTTGCT showed a switch fluorescence ratio of 1.03 ± 0.054. Work on CGGGGTTGGT yielded a switch fluorescence ratio of 1.01 ± 0.016. In the case of CGGGGTTGTC, the switch fluorescence ratio is reported as 0.966 ± 0.069. Sequence CGGGTAAGTG has a switch fluorescence ratio of 0.97 ± 0.014. CGGGTATAGG showed a switch fluorescence ratio of 1.013 ± 0.01. CGGGTATGAT was tested, and the switch fluorescence ratio was 1.031 ± 0.0092. In the case of CGGGTATTCT, the switch fluorescence ratio is reported as 0.974 ± 0.046. CGGGTATTTA gave a switch fluorescence ratio of 1.01 ± 0.025. CGGGTATTTT gave a switch fluorescence ratio of 0.9878 ± 0.0043. CGGGTCTGTT showed a switch fluorescence ratio of 0.979 ± 0.047. With CGGGTGACTC the switch fluorescence ratio was 1.02 ± 0.012. In the case of CGGGTGAGCT, the switch fluorescence ratio is reported as 1.11 ± 0.16. CGGGTGAGTT gave a switch fluorescence ratio of 1.15 ± 0.25. Sequence CGGGTGCCGT has a switch fluorescence ratio of 1.06 ± 0.15. Work on CGGGTGCGGG yielded a switch fluorescence ratio of 1.02 ± 0.038. In the case of CGGGTGGGAG, the switch fluorescence ratio is reported as 0.991 ± 0.038. With CGGGTGGGTG the switch fluorescence ratio was 1.01 ± 0.013. CGGGTGGTTG showed a switch fluorescence ratio of 1.04 ± 0.04. Sequence CGGGTGTGAG has a switch fluorescence ratio of 1.006 ± 0.0055. Sequence CGGGTGTGCG has a switch fluorescence ratio of 0.955 ± 0.088. CGGGTGTGGC showed a switch fluorescence ratio of 1.05 ± 0.015. With CGGGTTAGTG the switch fluorescence ratio was 0.992 ± 0.023. CGGGTTGGGC gave a switch fluorescence ratio of 1.07 ± 0.027. For CGGGTTGTCT, the switch fluorescence ratio was 0.963 ± 0.1. Sequence CGGGTTGTTA has a switch fluorescence ratio of 0.9951 ± 0.0081. CGGGTTTTGA showed a switch fluorescence ratio of 1.003 ± 0.0086. In the case of CGGTAAAAAG, the switch fluorescence ratio is reported as 1.01 ± 0.017. Work on CGGTAAATGG yielded a switch fluorescence ratio of 1.02 ± 0.04.

— the supplement of paper PMC10126150
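Further: ATP exposure 15 min at 22 °C before imaging.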
